Experiment [1] has as its target T1, BoNT/A Lc448, truncated botulinum neurotoxin serotype A light chain containing residues 1-448 (Clostridium botulinum, UniProt P0DPI0 1-448).
T1 construct: range 1-448
Put plainly: flow cytometry, yeast-displayed VHH titrated with soluble BoNT/A Lc448. Background: Flow cytometry measures light scatter and fluorescence of single cells or particles in a stream.

Experiment [2] addresses T1, BoNT/A Lc448, truncated botulinum …. Kind of experiment: KinExA flow fluorimetry, solution kinetics, purified Aa1 VHH and BoNT/A Lc448.
The target is the same in experiment [3]. Kind of experiment: KinExA; calculated as KD × kon.
Experiment [4] shares this target. Put plainly: KinExA flow fluorimetry, solution equilibrium, purified Aa1 VHH and BoNT/A Lc448.
For experiment [5] the target is unchanged.

A word on the Kd: it is the concentration at which binding is half-saturated. A higher Kd goes with lower affinity. In general, kon refers to the second-order rate constant of association. A low value points to slow association. Broadly, the koff is a measure of how fast the partners let go of each other.

T1 sequence (P0DPI0 1-448 limits assumed): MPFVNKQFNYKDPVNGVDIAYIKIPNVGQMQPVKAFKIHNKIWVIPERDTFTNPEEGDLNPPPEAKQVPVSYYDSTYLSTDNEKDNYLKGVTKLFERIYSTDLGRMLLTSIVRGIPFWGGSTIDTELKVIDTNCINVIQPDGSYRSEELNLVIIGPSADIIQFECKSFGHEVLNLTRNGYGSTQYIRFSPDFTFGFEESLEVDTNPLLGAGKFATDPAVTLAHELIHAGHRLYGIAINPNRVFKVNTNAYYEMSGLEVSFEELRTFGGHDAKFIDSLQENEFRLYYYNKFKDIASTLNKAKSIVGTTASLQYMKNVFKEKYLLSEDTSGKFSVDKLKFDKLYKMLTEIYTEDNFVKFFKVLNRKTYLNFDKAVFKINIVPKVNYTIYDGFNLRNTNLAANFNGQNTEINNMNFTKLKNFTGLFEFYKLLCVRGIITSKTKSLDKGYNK

B1: Aa6 VHH (VHH)
VHH: AVQLVESGGGLVASGGSLRLSCAASDFKFSDYWMHWIRQAPGKEREFVASIGWNGEITDYEESIEGRFAISRDNNKYTLYLEMRDLIPEDTGLYYCAASSDYRWSRQPFEFENWGQGTQVTVSS
Turning to B1, in experiment [1], the Kd amounted to 0.52 nM.

B2: Aa1 VHH (VHH)
VHH: AVQLVDSGGGTLQAGKSLRLSCAISGLAFDGGAMGSEHRLTAGAMGWFRQAPGKDREFVAAISPRTDETYYAESLEGRFSVSRDAAATMVFLEADNVRLDDTASYYCAADEDVTPRVMGVIPHADHWGQGTLVTVSS
Turning to B2, the kon in experiment [2] was 4.39e+07 M⁻¹ s⁻¹. In addition, the koff in experiment [3] is 0.00666 s⁻¹. Further, the Kd was 0.147 nM in experiment [4] and 0.03 nM in experiment [1]. For the same molecule, in experiment [5], the “IC50 (read off the curve)” value was roughly 0.1 nM.

B3: A26 VHH (VHH)
VHH: DVQLVESGGGLVQPGGSLRLSCVVSGLTSTEYAIGWFRQAPGKEREGVACLVVSGHNSGRTHYSAAVKGRFTVSQDDATNTAILHMDNLQPKDTAVYYCAAEVSSGQPAVTTFWEDMYDYWGQGTQVTVSS
As for B3, binding in experiment [1] was characterised by a dissociation constant (Kd) of 8.7 nM.

B4: A21 VHH (VHH)
VHH: QVQLVESGGGVVQAGGSLRLSCVASGFTIDDYPVAWFRQAPGKEREAVSCIGNRGGTTYYADSVKGRFSISRDDAKDTVYLQMNNLKSEDTAVYYCVKDLGSVGPGAEYDYWGQGTLVTVSS
B4: the Kd in experiment [1] is 60.7 nM.

B5: Aa9 VHH (VHH)
VHH: QVQLVESGGGMVQPGGSLRLSCKGSGSVFMFYDMGWYRQAPGNQRELVAVMGPGGNTNYADAVKGRFTVARNIDEDTVSLLMTNLEPEDTAVYYCAADFDTPWGASGRYDYWGQGTQVTVSS
Molecule B5 had a Kd in experiment [1] of 4.08 nM.

B6: Aa11 VHH (VHH)
VHH: QVQLVESGGGLVQAGGSLRLSCAASGRTFSSYAMGWFRQAPGKEREFVAAISWSGGSTYYADSVKGRFTISRDDARNTVTLLMNSLKPEDTAVYFCNAWSLEEQYWGQGTQVTVSS
B6 yielded a Kd in experiment [1] of 76.1 nM.

B7: A19 VHH (VHH)
VHH: EVQLVESGGGLVQPGGSLRLSCAASGFTFSGSAMSWVRQTPGKGLEWVSFISRSGSVTEYADSVKGRFTIARDNAPNTVYLQMNSLKPEDTAVYYCTADSYVDYEDDRLKWHHSWGQGTQVTVSS
As for B7, in experiment [1], the Kd is 4.65 nM.

B8: Aa8 VHH (VHH)
VHH: AVQLVESGGGLVQAGDSLRLSCTLSGGTFRHYAMSWFRQAPGKERVFVARIDYDGAMKYYADSVKGRFTISRDNAKNTMYLQMNSLKPEDTAVYYCNAHWDYGLGPEWDYWGQGTLVTVSS
As for B8, the Kd in experiment [1] worked out at 112 nM.

B9: A23 VHH (VHH)
VHH: AVQLVESGGGAVSPGGSLKLSCTASGLAFNGGAMGSEHRLTAGAMGWFRQAPGKDREFVAAIHPRTNDTYYSGTLEDRFTISIDDAKMTVYLQADSLRLEDTAVYSCAADEDVTPRGMGVIPYAEYWGQGTQVTVSS
Regarding B9, binding in experiment [1] was characterised by a dissociation constant (Kd) of 16.9 nM.

(Values after patent publication US20120269822A1 (published 2012).)
